The target in the test is human TNFSF9 (R&D Systems; #2295-4L-025/CF) (human) (UniProt P41273). The test is described as follows: MSD ELISA: TNFSF9 + 1 ug/mL antibody, binding to coated TNFRSF9. (ELISA stands for enzyme-linked immunosorbent assay.)
human TNFSF9 (R&D Systems; #2295-4L-025/CF) (human), sequence (P41273 71-254 limits assumed): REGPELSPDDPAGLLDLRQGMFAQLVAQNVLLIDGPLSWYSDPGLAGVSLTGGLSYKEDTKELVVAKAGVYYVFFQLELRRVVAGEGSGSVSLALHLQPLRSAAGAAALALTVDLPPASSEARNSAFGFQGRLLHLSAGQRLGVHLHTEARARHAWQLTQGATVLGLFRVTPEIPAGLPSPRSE
On to msIgG2b (antibody), for which the % inhibition of ligand receptor interaction was -5%.
Turning to msIgG2a (antibody), the % inhibition of ligand receptor interaction was -4%.
For the substance mouse IgG1 isotype control antibody, the % inhibition of ligand receptor interaction was 1%.
With huIgG1 (antibody), the % inhibition of ligand receptor interaction worked out at 0%.

The record behind these values is patent publication US20190016812A1.
